# Assay results from patent US20020103123A1, “Methods of modifying feeding behavior, compounds useful in such methods, and DNA encoding a hypothalamic atypical neuropeptide Y/peptide YY receptor (Y5)” (Synaptic Pharmaceutical Corporation, published 2002).
# Like-named read-outs stand apart in the source and are kept apart here. Ends that are not written are not given here.
# T1: human hippocampal Y5 receptor (human)
# T1 chain: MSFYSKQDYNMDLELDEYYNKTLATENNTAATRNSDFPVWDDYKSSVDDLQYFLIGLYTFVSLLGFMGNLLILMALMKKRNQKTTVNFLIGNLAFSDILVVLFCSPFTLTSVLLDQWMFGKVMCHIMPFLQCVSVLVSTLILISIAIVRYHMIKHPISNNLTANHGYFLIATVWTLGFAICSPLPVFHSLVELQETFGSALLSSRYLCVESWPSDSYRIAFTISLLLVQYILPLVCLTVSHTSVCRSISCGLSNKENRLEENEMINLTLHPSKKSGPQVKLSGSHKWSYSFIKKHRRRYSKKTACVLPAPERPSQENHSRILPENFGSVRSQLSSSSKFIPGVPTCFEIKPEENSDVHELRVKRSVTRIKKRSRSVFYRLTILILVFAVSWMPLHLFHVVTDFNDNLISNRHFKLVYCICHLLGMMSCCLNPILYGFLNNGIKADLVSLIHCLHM
# T2: rat hypothalamic Y5 receptor (rat)
# T2 chain: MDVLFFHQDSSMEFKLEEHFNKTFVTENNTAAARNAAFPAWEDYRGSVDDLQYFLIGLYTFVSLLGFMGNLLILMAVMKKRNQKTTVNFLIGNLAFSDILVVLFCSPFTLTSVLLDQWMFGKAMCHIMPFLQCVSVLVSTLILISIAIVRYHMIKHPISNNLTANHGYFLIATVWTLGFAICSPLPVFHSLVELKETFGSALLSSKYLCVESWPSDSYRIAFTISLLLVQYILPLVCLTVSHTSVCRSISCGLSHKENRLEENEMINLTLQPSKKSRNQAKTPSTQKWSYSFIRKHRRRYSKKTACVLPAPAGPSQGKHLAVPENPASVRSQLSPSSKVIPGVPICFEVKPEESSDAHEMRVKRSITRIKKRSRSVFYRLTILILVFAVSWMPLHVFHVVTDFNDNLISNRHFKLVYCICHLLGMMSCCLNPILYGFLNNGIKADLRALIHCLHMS
# T3: rat Y2 receptor (rat, UniProt Q9ERC0)
# T3 sequence: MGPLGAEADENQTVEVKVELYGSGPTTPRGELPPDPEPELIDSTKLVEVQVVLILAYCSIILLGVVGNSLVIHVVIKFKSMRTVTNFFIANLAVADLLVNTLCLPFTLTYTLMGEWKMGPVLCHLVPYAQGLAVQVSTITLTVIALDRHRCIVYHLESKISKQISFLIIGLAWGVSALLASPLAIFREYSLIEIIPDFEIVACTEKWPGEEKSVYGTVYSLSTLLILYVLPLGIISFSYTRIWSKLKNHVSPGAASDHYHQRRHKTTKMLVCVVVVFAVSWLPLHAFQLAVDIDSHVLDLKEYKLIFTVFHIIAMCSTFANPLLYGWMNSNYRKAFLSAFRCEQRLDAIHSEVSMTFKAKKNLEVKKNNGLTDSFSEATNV
# T4: human Y2 receptor (human, UniProt P49146)
# T4 sequence: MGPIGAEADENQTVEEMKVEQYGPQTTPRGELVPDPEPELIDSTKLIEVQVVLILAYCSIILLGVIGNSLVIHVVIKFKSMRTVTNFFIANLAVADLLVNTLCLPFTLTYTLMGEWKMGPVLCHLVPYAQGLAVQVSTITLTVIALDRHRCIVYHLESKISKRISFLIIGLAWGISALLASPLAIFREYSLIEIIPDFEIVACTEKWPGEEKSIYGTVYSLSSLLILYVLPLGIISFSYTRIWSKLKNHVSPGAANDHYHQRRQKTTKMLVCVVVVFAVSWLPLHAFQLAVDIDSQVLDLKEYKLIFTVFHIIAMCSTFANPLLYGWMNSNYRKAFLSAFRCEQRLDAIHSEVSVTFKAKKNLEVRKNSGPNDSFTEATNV
# Experiments:
# [1] = biological target: T1, human hippocampal Y5 receptor; assay: 125I-PYY displacement, COS-7 membranes
# [2] = biological target: T1, human hippocampal Y5 receptor; assay: 125I-PYY displacement, COS-7 membranes
# [3] = biological target: T2, rat hypothalamic Y5 receptor; assay: 125I-PYY displacement, COS-7 membranes
# [4] = biological target: T2, rat hypothalamic Y5 receptor; assay: 125I-PYY displacement, COS-7 membranes
# rat Y2 receptor = biological target: T3, rat Y2 receptor; assay: 125I-PYY displacement, COS-7 membranes
# rat Y1 receptor = rat Y1 receptor (rat, UniProt P21555); assay: 125I-PYY displacement, COS-7 membranes
# [5] = biological target: T1, human hippocampal Y5 receptor; assay: 125I-PYY displacement, LM(tk-) membranes
# [6] = biological target: T2, rat hypothalamic Y5 receptor; assay: 125I-PYY displacement, COS-7 membranes
# rat Y4 receptor = rat Y4 receptor (rat, UniProt Q63447); assay: 125I-PYY displacement, COS-7 membranes
# [7] = biological target: T1, human hippocampal Y5 receptor; assay: 125I-PYY3-36 displacement, LM(tk-) membranes
# human Y4 receptor [8] = biological target: T5, human Y4 receptor (human, UniProt P50391); assay: 125I-PYY displacement, COS-7 membranes
# human Y2 receptor [9] = biological target: T4, human Y2 receptor; assay: 125I-PYY displacement, COS-7 membranes
# human Y1 receptor [10] = biological target: T6, human Y1 receptor (human, UniProt P25929); assay: 125I-PYY displacement, COS-7 membranes
# human Y4 receptor [11] = biological target: T5, human Y4 receptor; assay: 125I-PYY displacement, COS-7 membranes; remark: listed apart in the source
# human Y2 receptor [12] = biological target: T4, human Y2 receptor; assay: 125I-PYY displacement, COS-7 membranes; remark: listed apart in the source
# human Y1 receptor [13] = biological target: T6, human Y1 receptor; assay: 125I-PYY displacement, COS-7 membranes; remark: listed apart in the source
# human Y2 receptor [14] = biological target: T4, human Y2 receptor; assay: 125I-PYY displacement, COS-7 membranes; tested only up to 100 nM
# human Y1 receptor [15] = biological target: T6, human Y1 receptor; assay: as above
# human Y2 receptor [16] = biological target: T4, human Y2 receptor; assay: as above; remark: listed apart in the source
# human Y1 receptor [17] = biological target: T6, human Y1 receptor; assay: as above; remark: listed apart in the source
Ki [1] [nM],Ki [3] [nM],Ki [4] [nM],Ki (rat Y2 receptor) [nM],Ki (rat Y1 receptor) [nM],Binder,also measured
> 1000,> 1000,> 1000,54,> 1000,SALRHYINLITRQRY (ends and bridges not checked) [porcine NPY22-36],–
–,–,> 100,–,–,YYSALRHYINLITRQRY (ends and bridges not checked) [porcine NPY20-36],–
300,260,260,35,140,DLARYYSALRHYINLITRQRY (ends and bridges not checked) [porcine NPY16-36],Ki [7]: 180 nM; Ki (rat Y4 receptor): 200 nM
–,–,–,31,190,PAEDLARYYSALRHYINLITRQRY (ends and bridges not checked) [porcine NPY13-36],–
630,230,230,> 1000,–,APLEPMYPGDYATHEQRAQYETQLRRYINTLTRPRY [rat PP],Ki [7]: 130 nM; Ki (human Y4 receptor [8]): 0.16 nM; Ki (human Y2 receptor [9]): > 1000 nM; Ki [6]: 180 nM; Ki (human Y1 receptor [10]): 450 nM; Ki (human Y4 receptor [11]): 0.16 nM; Ki (human Y2 receptor [12]): > 1000 nM; Ki [2]: 630 nM; Ki (human Y1 receptor [13]): 450 nM
> 470,> 1000,> 1000,–,–,ARYYSALRHYINLITRQRY (ends and bridges not checked) [porcine NPY18-36],–
–,–,–,–,> 1000,HYINLITRQRY (ends and bridges not checked) [porcine NPY26-36],Ki (human Y2 receptor [9]): 380 nM; Ki (human Y1 receptor [10]): > 1000 nM; Ki (human Y2 receptor [12]): 380 nM; Ki (human Y1 receptor [13]): > 1000 nM
–,–,–,–,130,SPEELNRYYASLRHYLNLVTRQRY [human PYY13-36],–

# More lines, now with the values behind:
Binder,Ki [1] [nM],Ki [3] [nM],Ki [4] [nM],Ki (rat Y2 receptor) [nM],Ki (rat Y1 receptor) [nM],also measured
PLEPVYPGDNATPEQMAQYAADLRRYINMLTRPRY [human PP2-36],2.1,–,–,–,–,Ki [2]: 2.1 nM
APLEPVYPGDNATPEQMAQYAADLRRYINMLTRPRY [human PP],–,5,5,> 1000,–,Ki [5]: 3 nM; Ki [6]: 5 nM; Ki (rat Y4 receptor): 0.04 nM
APLEPEYPGDNATPEQMAQYAAELRRYINMLTRPRY [bovine PP],1.6,8.4,8.4,> 1000,120,Ki [5]: 7.9 nM; Ki [7]: 5 nM
FLRF-NH2 [FLRF-amide],–,–,5500,–,45000,–
PLEPVY-OH [human PP31-36 free acid],–,–,> 10000,–,–,Ki (rat Y4 receptor): > 100 nM
YPSKPDNPGEDAPAEDMARYYSAL-NH2 [human NPY1-24 amide],–,–,> 1000,–,–,–
PLEPVY [human PP31-36],> 10000,> 10000,> 1000,> 10000,> 10000,Ki [7]: 41000 nM; Ki (rat Y4 receptor): 26 nM
TPEQMAQYAADLRRYINMLTRPRY [human PP13-36],720,290,84,> 650,> 1000,Ki (human Y2 receptor [14]): > 100 nM; Ki (human Y1 receptor [15]): > 100 nM; Ki (human Y4 receptor [8]): 39 nM; Ki (human Y2 receptor [16]): > 100 nM; Ki (human Y1 receptor [17]): > 100 nM; Ki (human Y4 receptor [11]): 39 nM; Ki [2]: 720 nM
